Experimental data reported in article PMC3383726.

Target: chimera of the human sst5 receptor with the carboxyl-terminal tail of the human sst2 receptor (hsst5-sst2CT) (human)
Experiment: radioligand binding; competition against 0.05 nM [125I-Tyr11]-SS-14 on membrane preparations (30 µg protein) of stably transfected HEK293 cells; competitor 10^-12 to 10^-6 M; 10 mM HEPES, 5 mM MgCl2, 5 µg/ml bacitracin, pH 7.5; 45 min, room temperature; vacuum filtration

- IC50: 30.3 nM
Substance: Somatostatin (SS-14) (from UniProt P61278 103-116) (peptide)
